Reference: patent publication US20190153112A1 (IMMUTEP S A S, published 2019)

Experiments:
[1] = biological target: human LAG-3 protein (Lymphocyte activation gene-3) on the cell surface (human) (UniProt P18627); assay: flow cytometry on CHO-LAG-3+ cells; antibody 6000 ng/ml
[2] = biological target: human LAG-3 protein (Lymphocyte activation gene-3) on the cell surface (human) (UniProt P18627); assay: flow cytometry on CHO-LAG-3+ cells; antibody 61 ng/ml
[3] = biological target: human LAG-3 protein (Lymphocyte activation gene-3) on the cell surface (human) (UniProt P18627); assay: flow cytometry on CHO-LAG-3+ cells; antibody 1905 ng/ml
[4] = biological target: human LAG-3 protein (Lymphocyte activation gene-3) on the cell surface (human) (UniProt P18627); assay: flow cytometry on CHO-LAG-3+ cells; antibody 605 ng/ml
[5] = biological target: human LAG-3 protein (Lymphocyte activation gene-3) on the cell surface (human) (UniProt P18627); assay: flow cytometry on CHO-LAG-3+ cells; antibody 6 ng/ml
[6] = biological target: human LAG-3 protein (Lymphocyte activation gene-3) on the cell surface (human) (UniProt P18627); assay: flow cytometry on CHO-LAG-3+ cells; antibody 192 ng/ml
[7] = biological target: human LAG-3 protein (Lymphocyte activation gene-3) on the cell surface (human) (UniProt P18627); assay: flow cytometry on CHO-LAG-3+ cells; antibody 20 ng/ml
[8] = biological target: human LAG-3 protein (Lymphocyte activation gene-3) on the cell surface (human) (UniProt P18627); assay: flow cytometry on CHO-LAG-3+ cells; antibody 0 ng/ml (no-antibody background)
[9] = biological target: T1, human LAG-3 protein (Lymphocyte activation gene-3) on the cell surface (human, UniProt P18627 23-525); assay: flow cytometry on LAG-3-expressing CHO cells, four independent experiments; reference 17B4
T1 construct: also called CD223; CHO LAG-3+
T1 sequence: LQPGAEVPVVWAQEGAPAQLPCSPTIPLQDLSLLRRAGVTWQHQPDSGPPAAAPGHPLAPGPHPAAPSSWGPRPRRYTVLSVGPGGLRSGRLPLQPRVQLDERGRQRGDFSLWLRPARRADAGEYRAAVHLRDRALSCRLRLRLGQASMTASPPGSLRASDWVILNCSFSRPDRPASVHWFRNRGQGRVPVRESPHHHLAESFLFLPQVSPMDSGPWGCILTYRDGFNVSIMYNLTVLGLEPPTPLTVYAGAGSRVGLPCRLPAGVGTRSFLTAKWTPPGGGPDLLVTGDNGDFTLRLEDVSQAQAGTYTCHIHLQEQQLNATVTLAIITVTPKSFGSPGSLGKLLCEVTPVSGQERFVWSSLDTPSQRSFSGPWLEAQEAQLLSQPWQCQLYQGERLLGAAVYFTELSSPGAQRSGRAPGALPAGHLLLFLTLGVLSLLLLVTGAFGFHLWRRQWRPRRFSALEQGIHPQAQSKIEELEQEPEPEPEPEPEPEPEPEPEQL
Procedure: (§1) LAG-3⁺-transfected CHO cells, or SEB-stimulated PBMCs from a healthy donor were incubated with anti-LAG-3 monoclonal antibody, or an isotype control (mIgG1) for 30 minutes in PBS, BSA 0.5%, Azide 0.1% at 4° C. […] The secondary antibody was washed away, and the CHO cells were directly analyzed by flow cytometry. The PBMCs were phenotyped using CD4-PE-Cy7 and CD8-APC-Cy7.

[10] = biological target: T1, human LAG-3 protein (Lymphocyte …); assay: flow cytometry on CD8+ cells of SEB-stimulated PBMCs (Donor 1), from Table 13
Procedure: as §1

[11] = biological target: T1, human LAG-3 protein (Lymphocyte …); assay: flow cytometry on CD4+ cells of SEB-stimulated PBMCs, three donors; reference 17B4
Procedure: as §1

[12] = biological target: T1, human LAG-3 protein (Lymphocyte …); assay: flow cytometry on CD8+ cells of SEB-stimulated PBMCs, mean of three donors
Procedure: as §1

[13] = biological target: T1, human LAG-3 protein (Lymphocyte …); assay: flow cytometry on CD8+ cells of SEB-stimulated PBMCs, three donors; reference 17B4
Procedure: as §1

[14] = biological target: T1, human LAG-3 protein (Lymphocyte …); assay: flow cytometry on CD4+ cells of SEB-stimulated PBMCs (Donor 1), from Table 13
Procedure: as §1

[15] = biological target: T1, human LAG-3 protein (Lymphocyte …); assay: flow cytometry on CD4+ cells of SEB-stimulated PBMCs, mean of three donors
Procedure: as §1

[16] = biological target: T2, IMP321 (recombinant soluble human LAG-3Ig fusion protein) (human, UniProt P18627 23-450); assay: cell-based or functional assay
T2 sequence (looked up): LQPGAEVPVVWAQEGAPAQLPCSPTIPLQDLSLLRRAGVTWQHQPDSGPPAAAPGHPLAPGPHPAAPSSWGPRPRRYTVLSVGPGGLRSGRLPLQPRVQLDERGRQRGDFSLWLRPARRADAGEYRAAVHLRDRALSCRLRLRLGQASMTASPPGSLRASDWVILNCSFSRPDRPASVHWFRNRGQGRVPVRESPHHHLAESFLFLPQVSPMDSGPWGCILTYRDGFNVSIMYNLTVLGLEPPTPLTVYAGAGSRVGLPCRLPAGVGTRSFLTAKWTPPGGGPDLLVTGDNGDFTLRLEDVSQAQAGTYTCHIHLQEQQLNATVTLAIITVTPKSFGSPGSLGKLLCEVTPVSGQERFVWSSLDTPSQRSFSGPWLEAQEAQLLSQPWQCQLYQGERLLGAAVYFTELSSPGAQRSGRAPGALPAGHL

Molecule	MFI FITC [1] [MFI]	MFI FITC [2] [MFI]	MFI FITC [3] [MFI]	MFI FITC [4] [MFI]	MFI FITC [5] [MFI]	MFI FITC [6] [MFI]	MFI FITC [7] [MFI]	MFI FITC [8] [MFI]	ratio of mean EC50 against 17B4 [9] [times]	EC50 [10] [nM]	ratio of mean EC50 against 17B4 [11] [times]	EC50 [12] [nM]	ratio of mean EC50 against 17B4 [13] [times]	EC50 [14] [nM]	EC50 [15] [nM]	percentage of inhibition of CD8+ T cell proliferation; Donor #1, 34F4 1000 ng/ml neutralised with a 10-fold excess of IMP321 [16] [%]	percentage of inhibition of CD8+ T cell proliferation; Donor #2, 34F4 1000 ng/ml neutralised with a 10-fold excess of IMP321 [16] [%]
human IgG4 (isotype-matched negative control) (antibody)	71	69	77	46	37	59	49	35	–	–	–	–	–	–	–	–	–
mouse monoclonal anti-LAG-3 antibody 13E2 (antibody, V domains shown, Whole mouse monoclonal antibody from a hybridoma; mIgG1 was used as its isotype control) VH: QVTLKESGPGILQPSQTLSLTCSFSGFSLSTSGMGLGWIRQPSGKGLEWLTHIWWDDIKRYNPDLRSRLTISKDTSSSQIFLKIASVDTADTATYYCARIVEGSYSSSYFDVWGAGTTVTVSS VL: DIVMTQPHKFMSTSVEDRVTITCKASQDVIFDVAWYQQKPGQSPKLLIYSASSRVSGVPDRFTGSGSGTDFTFTISSVQAEDLAVYYCQQHYSTPYTFGGGTTLEIK	–	–	–	–	–	–	–	–	2.7	0.3	3.8	0.4	2.5	0.1	0.2	–	–
mouse monoclonal anti-LAG-3 antibody 34F4 (antibody, V domains shown, Whole mouse monoclonal antibody from a hybridoma; mIgG1 was used as its isotype control) VH: QVTLKESGPGILQPSQTLSLTCSFSGFSLNTSGMGVGWIRQPSGKGLEWLTHIWWDDVKRYNPALKSRLTISKDTSSSQVFLKIASVDTADTATYYCARIEGDTYYDYYFDYWGQGVTLTVSS VL: DIVMTQSHKLMSTSVGDGLSITCKASQDVSIAVVWYQQKPGQSPKLLIYSASFRYTGVPDRFTGSGSGTDFTFTISSVQAEDLAVYYCQQHYSIPWTFGGGTKLEIK	–	–	–	–	–	–	–	–	1.6	–	3.8	0.5	2.5	0.1	0.2	0	41
